# Paper PMC2688778 (Structure (London, England : 1993), 2009)
# Changes are numbered by the printed parent chain.
# T1: RecE564 E657A (Escherichia coli K12, UniProt P15032 564-866, E657A)
# T1 sequence: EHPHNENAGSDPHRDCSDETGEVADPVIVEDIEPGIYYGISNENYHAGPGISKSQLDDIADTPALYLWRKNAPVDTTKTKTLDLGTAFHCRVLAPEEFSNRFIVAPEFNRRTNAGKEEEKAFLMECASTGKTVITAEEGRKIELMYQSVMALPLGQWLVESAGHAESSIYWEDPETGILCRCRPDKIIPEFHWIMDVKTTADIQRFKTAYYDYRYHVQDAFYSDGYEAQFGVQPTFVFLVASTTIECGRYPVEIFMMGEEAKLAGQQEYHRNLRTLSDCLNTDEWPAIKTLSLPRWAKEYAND
# T2: RecE564 T675A (Escherichia coli K12, UniProt P15032 564-866, T675A)
# T2 sequence: T1 sequence with A94E, T112A
# T3: RecE564 S617A (Escherichia coli K12, UniProt P15032 564-866, S617A)
# T3 sequence: T1 sequence with S54A, A94E
# T4: lambda exonuclease (bacteriophage lambda, UniProt P03697 1-226)
# T4 sequence: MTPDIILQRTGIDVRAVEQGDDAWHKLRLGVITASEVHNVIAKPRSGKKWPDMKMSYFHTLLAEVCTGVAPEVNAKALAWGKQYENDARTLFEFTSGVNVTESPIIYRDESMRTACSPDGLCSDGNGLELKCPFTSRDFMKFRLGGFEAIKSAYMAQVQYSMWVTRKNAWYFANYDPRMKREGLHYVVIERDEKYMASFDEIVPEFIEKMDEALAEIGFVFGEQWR
# T5: RecE564 Y608A (Escherichia coli K12, UniProt P15032 564-866, Y608A)
# T5 sequence: T1 sequence with Y45A, A94E
# T6: RecE564 K761A (Escherichia coli K12, UniProt P15032 564-866, K761A)
# T6 sequence: T1 sequence with A94E, K198A
# T7: RecE564 P669A (Escherichia coli K12, UniProt P15032 564-866, P669A)
# T7 sequence: T1 sequence with A94E, P106A
# B1: F25 (dsDNA)
# DNA 1: TAGAGCTTAATTGCTGAATCTGGTG
# DNA 2: CACCAGATTCAGCAATTAAGCTCTA
# Key:
# Assay in all cases: fluorescence anisotropy
# [1] = target: T1, RecE564 E657A
# [2] = target: T2, RecE564 T675A
# [3] = target: T3, RecE564 S617A
# [4] = target: T4, lambda exonuclease
# [5] = target: T5, RecE564 Y608A
# [6] = target: T6, RecE564 K761A
# [7] = target: T7, RecE564 P669A
binder,measurement,setting,value
B1,Kd,[1],0.09 ± 0.01 µM
same,Kd,[2],0.65 ± 0.03 µM
same,Kd,[3],0.15 ± 0.02 µM
same,Kd,[4],0.161 ± 0.002 µM
same,Kd,[5],0.16 ± 0.01 µM
same,Kd,[6],0.13 ± 0.01 µM
same,Kd,[7],0.109 ± 0.008 µM
